From patent US20020155503

Substance: recombinant form of the human Syk enzyme
- phosphorylation of library peptide, anti-phosphotyrosine ELISA (absorbance at 450 nm); preferred substrate of the sub-set (Asp-Glu-Glu-Asp-Tyr): Library Sub-Set 1 Asp-Glu-Glu-Asp-Tyr [SEQ ID No. 11]
- phosphorylation of library peptide, anti-phosphotyrosine ELISA (absorbance at 450 nm); preferred substrate of the sub-set (Asp-Glu-Glu-Tyr-Asp): Library Sub-Set 2 Asp-Glu-Glu-Tyr-Asp [SEQ ID No. 12]
- phosphorylation of library peptide, anti-phosphotyrosine ELISA (absorbance at 450 nm); preferred substrate of the sub-set (Asp-Glu-Tyr-Glu-Asp): Library Sub-Set 3Asp-Glu-Tyr-Glu-Asp [SEQ ID No. 13]
- phosphorylation of library peptide, anti-phosphotyrosine ELISA (absorbance at 450 nm); preferred substrate of the sub-set (Asp-Tyr-Glu-Glu-Val): Library Sub-Set 4 Asp-Tyr-Glu-Glu-Val [SEQ ID No. 14]
- phosphorylation of library peptide, anti-phosphotyrosine ELISA (absorbance at 450 nm); preferred substrate of the sub-set (Tyr-Ser-Ile-Ile-Nle): Library Sub-Set 5 Tyr-Ser-Ile-Ile-Nle [SEQ ID No. 15]
